From the supplement of paper PMC7877785
± gives the uncertainty stated by the source.

Assay: self-splicing fitness, log relative to wild type (ln ratio); higher = more splicing; Tetrahymena group I intron in knt gene, E. coli kanamycin selection, DiMSum; sequences stand for … in CUCUCU…GGAGGGAAAAGUUAUCAGGCAUGCACCUGGUAGCUAGUCUUUAAACCAAUAGAUUGCAUCGGUUUAAAAGGCAAGACCGUCAAAUUGCGGGAAAGGGGUCAACAGCCGUUCAGUACCAAGUCUCAGGGGAAACUUUGAGAUGGCCUUGCAAAGGGUAUGGUAAUAAGCUGACGGACAUGGUCCUAACCACGCAGCCAAGUCCUAAGUCAACAGAUCUUCUGUUGAUAUGGAUGCAGUUCACAGACUAAAUGUCGGUCGGGGAAGAUGUAUUCUUCUCAUAAGAUAUAGUCGGACCUCUCCUUAAUGGGAGCUAGCGGAUGAAGUGAUGCAACACUGGAGCCGCUGGGAACUAAUUUGUAUGCGAAAGUAUAUUGAUUAGUUUUGGAGUACUCGUGGUCG
In short: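 Library with all eight P1ex-region intron nucleotides randomised, intron inside the knt kanamycin-resistance gene on pET-22b(+), in E. coli BL21(DE3). Cells grew overnight at 37°C or 30°C on LB agar with or without 25 μg/mL kanamycin (plus 100 μg/mL carbenicillin, 50 μM IPTG, 0.2% rhamnose), in six replicate transformations. Pooled colonies were amplicon-sequenced on Illumina HiSeq 2500. DiMSum fitness is the error-weighted combination of wild-type-normalised replicate fold changes, kanamycin versus none.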

| Sequence | self-splicing fitness (ln) (30 °C) | self-splicing fitness (ln) (37 °C) |
| --- | --- | --- |
| ACCAAGCAAUAUUACGUAGU | -2.49 ± 0.078 | -1.75 ± 0.088 |
| ACCAAGCAAUAUUACGUCAU | -3.16 ± 0.096 | -1.71 ± 0.09 |
| ACCAAGCAAUAUUACGUCGC | -3.25 ± 0.19 | -1.27 ± 0.14 |
| ACCAAGCAAUAUUACGUGCA | -0.837 ± 0.065 | -0.466 ± 0.074 |
| ACCAAGCAAUAUUACGUGGA | -2.92 ± 0.14 | -1.49 ± 0.11 |
| ACCAAGCAAUAUUACGUUGU | -2.74 ± 0.094 | -0.985 ± 0.085 |
| ACCCAGCAAUAUUACGAACG | -3.06 ± 0.14 | -1.4 ± 0.14 |
| ACCCAGCAAUAUUACGACCC | -1.06 ± 0.13 | 0.555 ± 0.18 |
| ACCCAGCAAUAUUACGCGCA | -0.821 ± 0.061 | -0.299 ± 0.075 |
| ACCCAGCAAUAUUACGCGGG | -3.6 ± 0.13 | -3.08 ± 0.16 |
| ACCCAGCAAUAUUACGCGUA | -0.599 ± 0.07 | -1.08 ± 0.062 |
| ACCCAGCAAUAUUACGCGUC | -2.16 ± 0.088 | -1.42 ± 0.11 |
| ACCCAGCAAUAUUACGCUGA | -1.63 ± 0.087 | -0.241 ± 0.092 |
| ACCCAGCAAUAUUACGCUGU | -1.86 ± 0.075 | -0.908 ± 0.098 |
| ACCCAGCAAUAUUACGCUUA | -0.429 ± 0.07 | -0.188 ± 0.078 |
| ACCCAGCAAUAUUACGGACU | -0.261 ± 0.044 | 0.0991 ± 0.059 |
| ACCCAGCAAUAUUACGGAUC | -2.82 ± 0.085 | -1.16 ± 0.089 |
| ACCCAGCAAUAUUACGGAUU | -0.86 ± 0.048 | -0.157 ± 0.061 |
| ACCCAGCAAUAUUACGGCAC | -0.669 ± 0.079 | 0.0747 ± 0.12 |
| ACCCAGCAAUAUUACGGUUG | -3.66 ± 0.18 | -2.3 ± 0.19 |
| ACCCAGCAAUAUUACGUAAC | -1.49 ± 0.065 | -1.17 ± 0.1 |
| ACCCAGCAAUAUUACGUGGG | -3.34 ± 0.11 | -2.3 ± 0.13 |
| ACCCAGCAAUAUUACGUUAG | -3.31 ± 0.11 | -3.09 ± 0.15 |
| ACCGAGCAAUAUUACGAAGC | -3.47 ± 0.36 | -2.76 ± 0.36 |
| ACCGAGCAAUAUUACGACCG | -2.92 ± 0.22 | -1.52 ± 0.21 |

| Sequence | self-splicing fitness (ln) (30 °C) | self-splicing fitness (ln) (37 °C) |
| --- | --- | --- |
| ACCGAGCAAUAUUACGAGCU | -2.94 ± 0.23 | -2.54 ± 0.28 |
| ACCGAGCAAUAUUACGAUAA | -3.72 ± 0.23 | -2.01 ± 0.2 |
| ACCGAGCAAUAUUACGAUAU | -3.68 ± 0.18 | -1.54 ± 0.14 |
| ACCGAGCAAUAUUACGAUCG | -3.05 ± 0.33 | -1.64 ± 0.27 |
| ACCGAGCAAUAUUACGAUGA | -2.47 ± 0.17 | -2.73 ± 0.28 |
| ACCGAGCAAUAUUACGAUUU | -2.41 ± 0.11 | -0.954 ± 0.11 |
| ACCGAGCAAUAUUACGCAGC | -4.02 ± 0.47 | -2.84 ± 0.48 |
| ACCGAGCAAUAUUACGCAUG | -2.69 ± 0.13 | -2.47 ± 0.21 |
| ACCGAGCAAUAUUACGCGAA | -2.33 ± 0.32 | -3.17 ± 0.4 |
| ACCGAGCAAUAUUACGCUUC | -2.06 ± 0.36 | – |
| ACCGAGCAAUAUUACGGACC | -1.29 ± 0.082 | -0.293 ± 0.092 |
| ACCGAGCAAUAUUACGGACG | -2.21 ± 0.15 | 0.0411 ± 0.13 |
| ACCGAGCAAUAUUACGGAGU | -3.72 ± 0.25 | -2.11 ± 0.18 |
| ACCGAGCAAUAUUACGGCAC | -2.07 ± 0.14 | -1.76 ± 0.27 |
| ACCGAGCAAUAUUACGGUCU | -3.36 ± 0.1 | -1.62 ± 0.092 |
| ACCGAGCAAUAUUACGUCGA | -3.13 ± 0.24 | -2.12 ± 0.15 |
| ACCGAGCAAUAUUACGUGAC | -4.19 ± 0.34 | -1.4 ± 0.15 |
| ACCGAGCAAUAUUACGUGCG | -1.64 ± 0.082 | -1.37 ± 0.13 |
| ACCUAGCAAUAUUACGACCU | -1.26 ± 0.1 | 0.455 ± 0.12 |
| ACCUAGCAAUAUUACGAGGC | -1.58 ± 0.18 | -2.64 ± 0.25 |
| ACCUAGCAAUAUUACGAUCA | -1.23 ± 0.17 | -1.19 ± 0.18 |
| ACCUAGCAAUAUUACGAUCU | -0.35 ± 0.079 | 0.0427 ± 0.1 |
| ACCUAGCAAUAUUACGAUGU | -0.605 ± 0.045 | 0.0835 ± 0.065 |
| ACCUAGCAAUAUUACGCAAA | -2.56 ± 0.3 | -1.76 ± 0.18 |
| ACCUAGCAAUAUUACGCACC | -1.24 ± 0.14 | 0.276 ± 0.16 |

| Sequence | self-splicing fitness (ln) (30 °C) | self-splicing fitness (ln) (37 °C) |
| --- | --- | --- |
| ACCUAGCAAUAUUACGCACG | -0.85 ± 0.099 | 0.0662 ± 0.12 |
| ACCUAGCAAUAUUACGCAGC | -1.43 ± 0.095 | -1.46 ± 0.12 |
| ACCUAGCAAUAUUACGCAUU | -1.42 ± 0.051 | -0.377 ± 0.056 |
| ACCUAGCAAUAUUACGCCAU | -3.51 ± 0.27 | -1.21 ± 0.19 |
| ACCUAGCAAUAUUACGCGAG | -3.54 ± 0.15 | -1.55 ± 0.11 |
| ACCUAGCAAUAUUACGCGAU | -2.32 ± 0.078 | -0.981 ± 0.087 |
| ACCUAGCAAUAUUACGCGUU | -2.76 ± 0.099 | -0.77 ± 0.085 |
| ACCUAGCAAUAUUACGGAAC | -3.04 ± 0.24 | – |
| ACCUAGCAAUAUUACGGCAA | -1.41 ± 0.17 | 0.02 ± 0.14 |
| ACCUAGCAAUAUUACGGCAU | -0.00618 ± 0.076 | 0.451 ± 0.09 |
| ACCUAGCAAUAUUACGGGUA | -1.76 ± 0.12 | -1.19 ± 0.088 |
| ACCUAGCAAUAUUACGGUCC | -2.82 ± 0.15 | -2 ± 0.15 |
| ACCUAGCAAUAUUACGUACC | -1.59 ± 0.099 | -0.156 ± 0.11 |
| ACCUAGCAAUAUUACGUAGA | -2.73 ± 0.16 | -2.49 ± 0.21 |
| ACCUAGCAAUAUUACGUAGG | -3.59 ± 0.2 | -2.93 ± 0.21 |
| ACCUAGCAAUAUUACGUCGU | -0.733 ± 0.045 | -0.455 ± 0.059 |
| ACCUAGCAAUAUUACGUGUG | -1.28 ± 0.057 | -0.808 ± 0.064 |
| ACGAAGCAAUAUUACGAAAG | -3.2 ± 0.12 | -2.32 ± 0.16 |
| ACGAAGCAAUAUUACGACAG | -1.59 ± 0.11 | -0.583 ± 0.13 |
| ACGAAGCAAUAUUACGACUC | -1.12 ± 0.072 | -0.0297 ± 0.088 |
| ACGAAGCAAUAUUACGAGGC | -3.62 ± 0.21 | -1.81 ± 0.16 |
| ACGAAGCAAUAUUACGAUAG | -3.09 ± 0.23 | -1.87 ± 0.21 |
| ACGAAGCAAUAUUACGAUGC | -3.28 ± 0.21 | -2.01 ± 0.37 |
| ACGAAGCAAUAUUACGCAAC | -3.3 ± 0.25 | -2.38 ± 0.39 |
| ACGAAGCAAUAUUACGCAGA | -1.42 ± 0.12 | -1.1 ± 0.14 |
